Source: PMC5105194
One block for each substance: values may come before it.

Key:
[1] = target: retromer cargo selective complex VPS26/VPS29/VPS35 (UniProt Q96QK1); test: ITC; TBC proteins (100∼200 μM) injected into retromer proteins (8–16 μM); 20 °C; 20 mM Tris pH 8, 200 mM NaCl, 5 mM βME; one set of sites model
[2] = target: AlexaFluor488-labelled Rab7-GMPPNP (aa 1–186-Cys and Cys143Ser) (UniProt P51149); test: fluorescence polarisation; fluorescence anisotropy, direct binding: proteins titrated into 50 nM AlexaFluor488-labelled Rab7-GMPPNP; 20 °C; 20 mM Tris pH 8.0, 100 mM NaCl, 2 mM MgCl2, 5 mM βME; single-site 1:1 model
[3] = target: TBC1d5^TBC/CSC complex (UniProt Q96QK1); test: fluorescence polarisation; fluorescence anisotropy, competition: unlabelled Rab7-GMPPNP titrated into 8 μM TBC1d5/CSC and 50 nM labelled Rab7-GMPPNP; 20 °C; competitive binding one-site model

TBC1d5^TBC, sequence (Q92609 whole entry, the tested form may be a part): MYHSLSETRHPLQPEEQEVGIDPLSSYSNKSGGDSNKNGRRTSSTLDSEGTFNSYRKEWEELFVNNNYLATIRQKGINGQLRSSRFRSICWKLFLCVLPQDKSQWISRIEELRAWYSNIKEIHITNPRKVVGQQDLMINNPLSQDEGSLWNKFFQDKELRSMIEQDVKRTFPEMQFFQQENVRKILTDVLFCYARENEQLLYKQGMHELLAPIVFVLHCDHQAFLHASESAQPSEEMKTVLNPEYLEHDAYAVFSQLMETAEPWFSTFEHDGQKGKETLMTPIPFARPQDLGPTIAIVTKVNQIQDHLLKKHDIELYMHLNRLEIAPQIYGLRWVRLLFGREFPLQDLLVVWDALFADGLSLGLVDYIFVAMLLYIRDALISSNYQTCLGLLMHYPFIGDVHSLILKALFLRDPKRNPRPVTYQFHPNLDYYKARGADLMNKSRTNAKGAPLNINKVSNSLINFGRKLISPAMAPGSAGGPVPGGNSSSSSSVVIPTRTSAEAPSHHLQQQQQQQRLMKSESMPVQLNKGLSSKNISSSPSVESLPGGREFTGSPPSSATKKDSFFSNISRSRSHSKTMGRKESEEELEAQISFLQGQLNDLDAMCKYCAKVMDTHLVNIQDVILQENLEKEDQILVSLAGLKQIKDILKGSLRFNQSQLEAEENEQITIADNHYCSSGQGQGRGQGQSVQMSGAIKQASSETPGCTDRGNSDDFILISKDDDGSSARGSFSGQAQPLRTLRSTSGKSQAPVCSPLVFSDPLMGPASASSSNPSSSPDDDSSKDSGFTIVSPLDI
AlexaFluor488-labelled Rab7-GMPPNP (aa 1–186-Cys and Cys143Ser), sequence (P51149 other isoform, or with tags, fused parts or gaps C143S): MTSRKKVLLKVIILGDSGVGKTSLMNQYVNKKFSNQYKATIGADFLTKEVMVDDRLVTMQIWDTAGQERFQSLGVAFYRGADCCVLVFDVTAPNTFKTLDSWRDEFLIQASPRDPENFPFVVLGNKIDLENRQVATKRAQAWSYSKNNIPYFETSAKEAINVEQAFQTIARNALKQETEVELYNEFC

- Kd [1]: 0.22 µM
- stoichiometry N [1]: 1
Substance: TBC1d5^TBC (from UniProt Q92609 1-795) (domain or fragment)

- Kd [2]: 11.5 µM
Substance: TBC1d5^TBC/CSC complex (from UniProt Q96QK1 1-796; Q9UBQ0 1-182; O75436 1-327)

- Kd [3]: 36 µM
Substance: unlabelled Rab7-GMPPNP (from UniProt P51149 1-86) (natural protein)
